In US20240116985A1 (published 2024):
Starred links: 1 amine or outer side, 2 acyl side, 3 side chain; linkers in the order of their positions; H or OH if unused. Positions of bridges follow the written chain, without caps; N, C: chain ends. Non-standard residues stand in square brackets, D forms with d. Primed or numbered codes have the meaning given here. (4AcMePip)GAbu = (S)-2-amino-4-(N-(carboxymethyl)-1-methylpiperidine-4-carboxamido)butanoic acid, CN1CCC(C(=O)N(CC[C@H](N[*:1])C(=O)[*:2])CC(=O)[*:3])CC1; (Pfbn)GA = (S)-2-amino-3-((carboxymethyl)((perfluorophenyl)methyl)amino)propanoic acid, O=C([C@H](CN(CC(=O)[*:3])Cc1c(F)c(F)c(F)c(F)c1F)N[*:1])[*:2]; (Me2NPr)GAbu = (S)-2-amino-4-(N-(carboxymethyl)-3-(dimethylamino)propanamido)butanoic acid, CN(C)CCC(=O)N(CC[C@H](N[*:1])C(=O)[*:2])CC(=O)[*:3]; B5(16) = 2-amino-2-(pent-4-en-1-yl)hept-6-enoic acid = 2,2-bis(4-pentenyl)glycine (stitching residue), C=CCCCC(CCCC=C)(N[*:1])C(=O)[*:2]; PyrS2 = (S)-3-amino-1-((pent-4-en-1-yloxy)carbonyl)pyrrolidine-3-carboxylic acid, C=CCCCOC(=O)N1CC[C@@](N[*:1])(C(=O)[*:2])C1; B5(9) = 2-amino-2-(pent-4-en-1-yl)hept-6-enoic acid (2,2-bis(4-pentenyl)glycine), C=CCCCC(CCCC=C)(N[*:1])C(=O)[*:2]; B5(22) = 2-amino-2-(pent-4-en-1-yl)hept-6-enoic acid (two alkene side chains), C=CCCCC(CCCC=C)(N[*:1])C(=O)[*:2]; Bta = N[C@@H](Cc1csc2ccccc12)C(=O)O; αAllylPro = C=CC[C@@]1(C(=O)O)CCCN1; tBuAla = CC(C)(C)C[C@H](N)C(=O)O; 3Thi = N[C@@H](Cc1ccsc1)C(=O)O; S8 = C=CCCCCCC[C@](C)(N)C(=O)O; PyrS2(4) = not defined here

T1: full-length beta-Catenin (Uniprot ID P35222) (Homo sapiens (Human), UniProt P35222 1-781)
T1 construct: Said to be full-length in the fluorescence polarization assay; also called bCat; B-Catenin
T1 sequence: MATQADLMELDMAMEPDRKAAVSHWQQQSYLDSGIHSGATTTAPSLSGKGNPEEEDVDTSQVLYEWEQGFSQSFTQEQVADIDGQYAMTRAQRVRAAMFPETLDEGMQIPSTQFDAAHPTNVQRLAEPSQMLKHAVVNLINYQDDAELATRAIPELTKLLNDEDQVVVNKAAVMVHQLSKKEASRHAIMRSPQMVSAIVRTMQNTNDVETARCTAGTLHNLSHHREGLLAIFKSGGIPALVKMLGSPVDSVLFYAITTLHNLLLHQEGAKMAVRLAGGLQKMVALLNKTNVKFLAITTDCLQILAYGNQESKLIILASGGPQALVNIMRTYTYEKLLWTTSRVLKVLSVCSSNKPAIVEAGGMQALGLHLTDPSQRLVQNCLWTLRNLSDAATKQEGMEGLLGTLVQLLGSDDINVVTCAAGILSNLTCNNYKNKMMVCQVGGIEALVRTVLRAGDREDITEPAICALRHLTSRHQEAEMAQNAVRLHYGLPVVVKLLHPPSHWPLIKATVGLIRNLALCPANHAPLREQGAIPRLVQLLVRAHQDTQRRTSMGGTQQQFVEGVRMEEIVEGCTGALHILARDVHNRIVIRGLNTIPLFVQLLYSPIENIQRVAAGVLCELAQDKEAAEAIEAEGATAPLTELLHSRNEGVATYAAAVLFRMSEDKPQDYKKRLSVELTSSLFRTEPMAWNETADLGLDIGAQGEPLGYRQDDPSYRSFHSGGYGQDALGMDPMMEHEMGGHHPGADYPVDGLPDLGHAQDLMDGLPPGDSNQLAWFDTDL

T2: B-cat-Halo (UniProt P35222 1-781)
T2 sequence (looked up): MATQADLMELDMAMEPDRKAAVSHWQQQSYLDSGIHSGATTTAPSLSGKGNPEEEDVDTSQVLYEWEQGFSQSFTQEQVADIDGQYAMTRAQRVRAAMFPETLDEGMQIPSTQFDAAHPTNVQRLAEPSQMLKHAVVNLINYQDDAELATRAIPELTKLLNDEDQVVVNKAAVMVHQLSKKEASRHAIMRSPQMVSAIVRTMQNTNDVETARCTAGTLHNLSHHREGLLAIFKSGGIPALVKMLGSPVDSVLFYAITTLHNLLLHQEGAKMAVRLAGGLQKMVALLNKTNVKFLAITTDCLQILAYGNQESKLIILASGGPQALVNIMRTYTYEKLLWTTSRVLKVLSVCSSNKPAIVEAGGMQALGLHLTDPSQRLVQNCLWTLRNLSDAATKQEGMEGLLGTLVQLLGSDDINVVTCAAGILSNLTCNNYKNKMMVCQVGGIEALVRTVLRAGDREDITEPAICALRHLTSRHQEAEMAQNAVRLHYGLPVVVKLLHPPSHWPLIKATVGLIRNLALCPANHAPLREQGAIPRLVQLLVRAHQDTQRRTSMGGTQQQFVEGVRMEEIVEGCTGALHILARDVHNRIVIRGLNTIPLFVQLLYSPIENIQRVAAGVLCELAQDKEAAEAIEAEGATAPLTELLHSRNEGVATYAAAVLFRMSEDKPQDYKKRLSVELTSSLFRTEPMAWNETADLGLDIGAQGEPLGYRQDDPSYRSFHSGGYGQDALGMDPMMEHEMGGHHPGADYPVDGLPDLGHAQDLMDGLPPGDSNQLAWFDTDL

T3: B-cat-Halo (UniProt P35222 1-781)
T3 sequence (looked up): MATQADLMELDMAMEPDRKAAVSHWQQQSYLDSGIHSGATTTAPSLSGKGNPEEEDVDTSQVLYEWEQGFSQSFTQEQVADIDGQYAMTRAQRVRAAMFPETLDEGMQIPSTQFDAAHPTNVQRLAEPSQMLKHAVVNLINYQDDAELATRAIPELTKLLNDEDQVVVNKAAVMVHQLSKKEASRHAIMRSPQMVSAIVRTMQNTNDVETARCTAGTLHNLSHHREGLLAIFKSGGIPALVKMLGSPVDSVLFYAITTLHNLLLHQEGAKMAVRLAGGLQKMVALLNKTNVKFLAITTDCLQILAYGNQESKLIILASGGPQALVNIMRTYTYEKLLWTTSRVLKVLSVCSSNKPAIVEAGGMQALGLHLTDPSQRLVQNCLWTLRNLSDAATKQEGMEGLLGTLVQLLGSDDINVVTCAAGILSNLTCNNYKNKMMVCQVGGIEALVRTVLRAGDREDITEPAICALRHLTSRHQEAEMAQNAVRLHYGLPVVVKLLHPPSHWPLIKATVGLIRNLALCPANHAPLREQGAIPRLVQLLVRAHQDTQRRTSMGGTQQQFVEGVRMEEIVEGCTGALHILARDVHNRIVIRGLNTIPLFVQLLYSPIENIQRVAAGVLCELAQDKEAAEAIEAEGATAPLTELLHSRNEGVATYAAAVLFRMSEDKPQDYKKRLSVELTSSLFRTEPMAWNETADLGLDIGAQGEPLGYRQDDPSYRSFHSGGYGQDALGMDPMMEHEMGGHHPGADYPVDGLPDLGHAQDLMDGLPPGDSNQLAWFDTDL


Target: T1, full-length beta-Catenin (Uniprot ID …)
Test: fluorescence polarization competition; peptide titrated against 10 nM full-length beta-catenin + 10 nM 5FAM-TCF4(10-53) probe
Procedure: The plate was incubated protected from light for 60 minutes at 20° C. prior to read. Reads were performed on a CLARIOstar plate reader (BMG Labtech) in duplicate, and data were fitted to a 1:1 binding model with hill slope using an in-house script. All provided concentrations are final concentrations.

Binder | EC50 [nM]
XDIXDRAAFQXFXQ (not fully specified; Ac-PL3-Asp-Ile-B5-Asp-Arg-Ala-Ala-Phe-Gln-S8-Phe-BztA-Gln-NH2; N-terminal acetyl, C-terminal amide; non-natural PL3 (1), B5 (4), S8 (11), BztA (13); staples PL3-B5 and B5-S8 by olefin metathesis, Stapled peptide; Earlier-eluting staple isomer composition) [I-613] | 1630
XDIXDEAAFQXFXP (not fully specified; Ac-PL3-Asp-Ile-B5-Asp-Glu-Ala-Ala-Phe-Gln-S8-Phe-BztA-Pro-NH2; N-terminal acetyl, C-terminal amide; non-natural PL3 (1), B5 (4), S8 (11), BztA (13); staples PL3-B5 and B5-S8 by olefin metathesis, Stapled peptide; Later-eluting staple isomer composition) [I-638] | 3880
XDIXDEAAFQXFXP (not fully specified; Ac-PL3-Asp-Ile-B5-Asp-Glu-Ala-Ala-Phe-Gln-S8-Phe-BztA-Pro-NH2; N-terminal acetyl, C-terminal amide; non-natural PL3 (1), B5 (4), S8 (11), BztA (13); staples PL3-B5 and B5-S8 by olefin metathesis, Stapled peptide; Earlier-eluting staple isomer composition) [I-637] | 5000
XDIXDEAAFQXFXT (not fully specified; Ac-PL3-Asp-Ile-B5-Asp-Glu-Ala-Ala-Phe-Gln-S8-Phe-BztA-Thr-NH2; N-terminal acetyl, C-terminal amide; non-natural PL3 (1), B5 (4), S8 (11), BztA (13); staples PL3-B5 and B5-S8 by olefin metathesis, Stapled peptide; Later-eluting staple isomer composition) [I-642] | 118
Ac-[αAllylPro]DI[B5(16)]DEAAFQ[S8]F[Bta]L-NH2 (staple 1-4, 4-11, Stapled peptide) [I-634] | 425
Ac-[αAllylPro]DI[B5(16)]DEAAFQ[S8]F[Bta]R-NH2 (staple 1-4, 4-11, Stapled peptide) [I-633] | 88
XDIXDEAAFQXFXS (not fully specified; Ac-PL3-Asp-Ile-B5-Asp-Glu-Ala-Ala-Phe-Gln-S8-Phe-BztA-Ser-NH2; N-terminal acetyl, C-terminal amide; non-natural PL3 (1), B5 (4), S8 (11), BztA (13); staples PL3-B5 and B5-S8 by olefin metathesis, Stapled peptide; Earlier-eluting staple isomer composition) [I-639] | 109
XDIXDEAAFQXFXT (not fully specified; Ac-PL3-Asp-Ile-B5-Asp-Glu-Ala-Ala-Phe-Gln-S8-Phe-BztA-Thr-NH2; N-terminal acetyl, C-terminal amide; non-natural PL3 (1), B5 (4), S8 (11), BztA (13); staples PL3-B5 and B5-S8 by olefin metathesis, Stapled peptide; Earlier-eluting staple isomer composition) [I-641] | 122
XDLXDEAAFTXFXH (not fully specified; Ac-PL3-Asp-Leu-B5-Asp-Glu-Ala-Ala-Phe-Thr-S8-Phe-BztA-His-NH2; N-terminal acetyl, C-terminal amide; non-natural PL3 (1), B5 (4), S8 (11), BztA (13); staples PL3-B5 and B5-S8 by olefin metathesis, Stapled peptide; Earlier-eluting staple isomer composition) [I-617] | 253
XDLXDEAAFTXFXQ (not fully specified; Ac-PL3-Asp-Leu-B5-Asp-Glu-Ala-Ala-Phe-Thr-S8-Phe-BztA-Gln-NH2; N-terminal acetyl, C-terminal amide; non-natural PL3 (1), B5 (4), S8 (11), BztA (13); staples PL3-B5 and B5-S8 by olefin metathesis, Stapled peptide; Later-eluting staple isomer composition) [I-623] | 103
XDLXDEAAFTXFXQ (not fully specified; Ac-PL3-Asp-Leu-B5-Asp-Glu-Ala-Ala-Phe-Thr-S8-Phe-BztA-Gln-NH2; N-terminal acetyl, C-terminal amide; non-natural PL3 (1), B5 (4), S8 (11), BztA (13); staples PL3-B5 and B5-S8 by olefin metathesis, Stapled peptide; Earlier-eluting staple isomer composition) [I-622] | 230

The remaining lines, values ahead:

EC50 [nM] | Binder
1140 | XDIXDRAAFQXFXQ (not fully specified; Ac-PL3-Asp-Ile-B5-Asp-Arg-Ala-Ala-Phe-Gln-S8-Phe-BztA-Gln-NH2; N-terminal acetyl, C-terminal amide; non-natural PL3 (1), B5 (4), S8 (11), BztA (13); staples PL3-B5 and B5-S8 by olefin metathesis, Stapled peptide; Later-eluting staple isomer composition) [I-614]
135 | XDLXDEAAFTXFXH (not fully specified; Ac-PL3-Asp-Leu-B5-Asp-Glu-Ala-Ala-Phe-Thr-S8-Phe-BztA-His-NH2; N-terminal acetyl, C-terminal amide; non-natural PL3 (1), B5 (4), S8 (11), BztA (13); staples PL3-B5 and B5-S8 by olefin metathesis, Stapled peptide; Later-eluting staple isomer composition) [I-618]
808 | Ac-[αAllylPro]DI[B5(9)]DEAAFQ[S8]F[Bta]W-NH2 (staple 1-4, 4-11, Stapled peptide; Later-eluting staple isomer composition) [I-644]
171 | Ac-[αAllylPro]DI[B5(16)]DEAAFQ[S8]F[Bta]F-NH2 (staple 1-4, 4-11, Stapled peptide) [I-635]
958 | Ac-[αAllylPro]DI[B5(9)]DEAAFQ[S8]F[Bta]W-NH2 (staple 1-4, 4-11, Stapled peptide; Earlier-eluting staple isomer composition) [I-643]
198 | Ac-[αAllylPro]DI[B5(16)]DEAAFQ[S8]F[Bta]Y-NH2 (staple 1-4, 4-11, Stapled peptide) [I-636]
87 | XDIXDEAAFQXFXS (not fully specified; Ac-PL3-Asp-Ile-B5-Asp-Glu-Ala-Ala-Phe-Gln-S8-Phe-BztA-Ser-NH2; N-terminal acetyl, C-terminal amide; non-natural PL3 (1), B5 (4), S8 (11), BztA (13); staples PL3-B5 and B5-S8 by olefin metathesis, Stapled peptide; Later-eluting staple isomer composition) [I-640]

Target: T2, B-cat-Halo
Test: cell-based or functional assay

NanoBRET Abs IC50 [nM] | Binder
> 20000 | Ac-[αAllylPro]D[tBuAla][B5(16)]D[(Me)GA]AAFN[PyrS2(4)][3Thi][Bta]Q-NH2 (staple 1-4, 4-11; not fully specified; printed as Ac-PL3-Asp-Npg-B5-Asp-[Me]GA-Ala-Ala-Phe-Asn-PyrS2-3Thi-BztA-Gln-NH2; reading uncertain) [I-1637]
14500 | Ac-[αAllylPro]D[tBuAla][B5(16)]D[(Pfbn)GA]AAFN[PyrS2][3Thi][Bta]Q-NH2 (staple 1-4, 4-11) [I-1638]

Target: T3, B-cat-Halo
Test: cell-based or functional assay

NanoBRET Abs IC50 [nM] | Binder
27400 | Ac-[αAllylPro]D[tBuAla][B5(22)]D[(Me2NPr)GAbu]AAFL[PyrS2][3Thi][Bta]Q-NH2 (staple 1-4, 4-11) [I-2244]
> 20000 | Ac-[αAllylPro]D[tBuAla][B5(22)]D[(4AcMePip)GAbu]AAFL[PyrS2][3Thi][Bta]Q-NH2 (staple 1-4, 4-11) [I-2245]
